Data published in patent publication US20130266605A1, “PEPTIDE INHIBITORS OF CD40L SIGNALING AND USES THEREFOR” (PHYLOGICA LIMITED, priority 2010, published 2013).
Like-named read-outs stand apart in the source and are kept apart here. Positions of bridges follow the written chain, without caps; N, C: chain ends. Residues, ends and D or L forms follow the SMILES beside them. Chains are numbered I, II in the order given. No end group written: not given here. PEG = not defined here

What was measured:
CD40L = biological target: T1, CD40L (Homo sapiens, UniProt P29965); assay: Octet Red label-free association/dissociation analysis; format: binding
T1 sequence (P29965 113-261 limits assumed): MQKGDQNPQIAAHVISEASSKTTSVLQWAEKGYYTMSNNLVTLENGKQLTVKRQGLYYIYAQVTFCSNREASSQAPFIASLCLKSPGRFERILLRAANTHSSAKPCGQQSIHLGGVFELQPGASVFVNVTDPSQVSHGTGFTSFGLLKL
Description: Label-free analyses of the associations and dissociations of base peptides and serine derivatives of base peptides with the CD40L target protein were performed using the Octet Red system (ForteBio, Inc., USA) according to the manufacturer's instructions. These analyses provide kinetic constants of CD40L binding activity, especially the association rate constant (Ka) and dissociation rate constant ([…]) of binding, i.e., measures of the “on” and “off” rates of the peptides relative to soluble CD40L.

CD40L-CD40 interaction = biological target: T2, CD40L-CD40 interaction (Homo sapiens, UniProt P29965); assay: Chemiluminescent proximity assay (Alphascreen); format: binding
T2 sequence (P29965 113-261 limits assumed): T1 sequence (P29965 113-261 limits assumed)
Description: In one example, the Alphascreen assay (PerkinElmer) was employed according to the manufacturer's instructions.
Homodimers and heterodimers were also assayed by chemiluminescent proximity assay for their ability to inhibit CD40L-CD40 interaction.

CD40 ligand [1] = biological target: T3, CD40 ligand (UniProt P29965 108-261, limits assumed); assay: Alphascreen proximity assay, inhibition of CD40L-CD40
T3 construct: Used immobilised, soluble, or biotinylated on streptavidin beads; also called CD154; soluble CD40L
T3 sequence (looked up): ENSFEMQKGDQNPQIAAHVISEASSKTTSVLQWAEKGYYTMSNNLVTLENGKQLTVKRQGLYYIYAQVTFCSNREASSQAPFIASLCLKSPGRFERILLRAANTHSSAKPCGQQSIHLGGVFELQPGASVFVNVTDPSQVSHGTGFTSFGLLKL

CD40 ligand [2] = biological target: T3, CD40 ligand; assay: cell-based or functional assay
CD40 ligand [3] = biological target: T3, CD40 ligand; assay: Octet Red label-free (BLI)
CD40 ligand [4] = biological target: T3, CD40 ligand; assay: Alphascreen, unmodified peptide, inhibition of CD40L/CD40-Fc
CD40 ligand [5] = biological target: T3, CD40 ligand; assay: Alphascreen, PEGylated peptide, inhibition of CD40L/CD40-Fc
CD40 ligand [6] = biological target: T3, CD40 ligand; assay: cell-based or functional assay; remark: listed apart in the source
CD40 ligand [7] = biological target: T3, CD40 ligand; assay: phage-displayed peptide on bound CD40L, soluble CD40L as competitor
[8] = Cys-Ser derivative peptides, read-out: KD value
[9] = base peptides, equilibrium dissociation constant, read-out: KD

CC(C)C[C@H](NC(=O)[C@H](Cc1ccc(O)cc1)NC(=O)[C@H](CC(=O)O)NC(=O)[C@H](CCCNC(=N)N)NC(=O)[C@H](CCCNC(=N)N)NC(=O)[C@H](Cc1ccccc1)NC(=O)[C@H](CO)NC(=O)[C@H](CO)NC(=O)[C@H](Cc1ccc(O)cc1)NC(=O)[C@H](Cc1ccccc1)NC(=O)[C@H](CCCNC(=N)N)NC(=O)[C@H](Cc1ccccc1)NC(=O)[C@H](CC(C)C)NC(=O)[C@H](Cc1ccccc1)NC(=O)[C@H](Cc1ccccc1)NC(=O)[C@H](CC(C)C)NC(=O)[C@H](CC(N)=O)NC(=O)[C@H](Cc1ccc(O)cc1)NC(=O)[C@H](CCCNC(=N)N)NC(=O)[C@@H]1CCCN1C(=O)[C@@H]1CCCN1)C(=O)N[C@@H](Cc1ccc(O)cc1)C(=O)N[C@@H](Cc1ccccc1)C(=O)O [CD40L M1_9s] (H-PPRYNLFFLFRFYSSFRRDYLYF-OH)
Kd (CD40L; [8]): 300 nM

PFTWRPTIFWIIQLIVYMRHFGGGGSRSELLRENICRYVSLFDHPLQRNTPLDELRFVIFDTETSGFDLVKDRILSIR [CD40L D1_0014]
Kd (CD40L): 48 nM
higher affinity for CD40L than the base monomeric peptide (CD40L; heterodimer versus N-terminal monomer, from Table 2 data): 6 fold

CC[C@H](C)[C@H](NC(=O)[C@H](CC(N)=O)NC(=O)[C@H](Cc1ccccc1)NC(=O)[C@@H]1CCCN1C(=O)[C@@H](NC(=O)[C@H](CC(N)=O)NC(=O)[C@@H](NC(=O)CNC(=O)[C@H](Cc1ccccc1)NC(=O)[C@H](CC(C)C)NC(=O)[C@@H](NC(=O)[C@H](Cc1ccccc1)NC(=O)[C@H](CO)NC(=O)[C@@H](N)Cc1c[nH]cn1)C(C)C)C(C)C)C(C)C)C(=O)N[C@H](C(=O)N[C@@H](CC(=O)O)C(=O)N[C@@H](Cc1ccccc1)C(=O)N[C@@H](CCC(N)=O)C(=O)N[C@@H](CCSC)C(=O)N[C@@H](CCCNC(=N)N)C(=O)N[C@H](C(=O)N[C@@H](CCCCN)C(=O)N[C@@H](CO)C(=O)O)C(C)C)[C@@H](C)CC [CD40L M1_42s] (H-HSFVLFGVNVPFNIIDFQMRVKS-OH)
Kd (CD40L; [8]): 100 nM

LDLFGDFNGLPEGADRTEFYQHEGHWQNRMILGDSLQVMASLAEREGLRGKVQCIYFDPPYGIKFN [CD40L M9_763]
Kd (CD40L; [9]): 27 nM

CC[C@H](C)[C@H](NC(=O)[C@H](CC(N)=O)NC(=O)[C@H](Cc1ccccc1)NC(=O)[C@@H]1CCCN1C(=O)[C@@H](NC(=O)[C@H](CC(N)=O)NC(=O)[C@@H](NC(=O)CNC(=O)[C@H](Cc1ccccc1)NC(=O)[C@H](CC(C)C)NC(=O)[C@@H](NC(=O)[C@H](Cc1ccccc1)NC(=O)[C@H](CO)NC(=O)[C@@H](N)Cc1c[nH]cn1)C(C)C)C(C)C)C(C)C)C(=O)N[C@H](C(=O)N[C@@H](CC(=O)O)C(=O)N[C@@H](Cc1ccccc1)C(=O)N[C@@H](CCC(N)=O)C(=O)N[C@@H](CCSC)C(=O)N[C@@H](CCCNC(=N)N)C(=O)N[C@H](C(=O)N[C@@H](CCCCN)C(=O)N[C@@H](CS)C(=O)O)C(C)C)[C@@H](C)CC [CD40L M1_42] (H-HSFVLFGVNVPFNIIDFQMRVKC-OH; N-terminus and C-terminus assumed)
Kd (CD40L; [9]): 30 nM

CC[C@H](C)[C@H](NC(=O)[C@H](CC(C)C)NC(=O)[C@H](Cc1c[nH]c2ccccc12)NC(=O)[C@H](CCSC)NC(=O)[C@H](CCC(=O)O)NC(=O)CNC(=O)[C@H](CCC(=O)O)NC(=O)[C@H](CC(C)C)NC(=O)[C@H](CO)NC(=O)[C@H](CCC(=O)O)NC(=O)[C@@H](NC(=O)[C@@H](N)CCCNC(=N)N)[C@@H](C)CC)C(=O)N[C@@H](CC(N)=O)C(=O)N1CCC[C@H]1C(=O)N[C@@H](Cc1ccccc1)C(=O)N[C@@H](CC(N)=O)C(=O)NCC(=O)N[C@@H](CCC(=O)O)C(=O)N[C@H](C(=O)N[C@@H](CC(C)C)C(=O)N[C@@H](CC(=O)O)C(=O)N[C@@H](CCC(=O)O)C(=O)N[C@@H](Cc1c[nH]cn1)C(=O)N[C@H](C(=O)N[C@@H](CC(C)C)C(=O)N[C@@H](CCC(=O)O)C(=O)N[C@H](C(=O)N[C@@H](Cc1c[nH]c2ccccc12)C(=O)N[C@@H](CC(C)C)C(=O)N[C@@H](CCCCN)C(=O)O)C(C)C)[C@@H](C)O)[C@@H](C)O [CD40L M8_748] (H-RIESLEGEMWLINPFNGETLDEHTLEVWLK-OH)
EC50 (CD40L-CD40 interaction): 184 nM
Kd (CD40L): 5 nM

CC[C@H](C)[C@H](NC(=O)[C@H](C)NC(=O)[C@@H](NC(=O)[C@H](CCSC)NC(=O)[C@H](CCC(=O)O)NC(=O)[C@H](CO)NC(=O)[C@@H](N)CC(C)C)[C@@H](C)CC)C(=O)N[C@@H](Cc1ccc(O)cc1)C(=O)N[C@H](C(=O)N[C@@H](Cc1ccccc1)C(=O)N[C@@H](CC(C)C)C(=O)N[C@@H](Cc1c[nH]c2ccccc12)C(=O)N[C@@H](CCCCN)C(=O)N[C@@H](CCCCN)C(=O)N[C@H](C(=O)N[C@@H](Cc1ccccc1)C(=O)N[C@@H](CC(C)C)C(=O)O)C(C)C)C(C)C [CD40L M7_217s] (H-LSEMIAIYVFLWKKVFL-OH; N-terminus and C-terminus assumed)
Kd (CD40L; [8]): 100 nM

B1: LAEHAVWSLKcFPDWEWYNINIFGTDDPNHFWVEcDGHGKILFPGYPEGYYENHFLHSFELED (peptide)
peptide: LAEHAVWSLKCFPDWEWYNINIFGTDDPNHFWVECDGHGKILFPGYPEGYYENHFLHSFELED
modifications: not fully specified
EC50 (CD40L-CD40 interaction; monomeric non-PEGylated (unmodified) base peptide; 50% reduction in control emission at 520-620 nm; read-out: EC50nmodified) CD40L/CD40-Fc/BAF617): 197 nM
Kd (CD40L; [9]): 8 nM

B2: Cys_M1_6S-Cys_M1_189S heterodimer (peptide)
peptide 1: CHPFSIKNVFSIWNFFSVY
peptide 2: CLLLFFFSPPFSIFSFSLTTLS
modifications: disulfide I:1-II:1
notes: also called 6-189 dimer
EC50 (CD40 ligand [1]): 0.000174 nM
EC50, inhibition of CD40L-induced CD86 expression on primary B-cells (CD40 ligand [2]): 140 nM

B3: CD40L M9_789 (peptide)
peptide: LLAEQAGTLKSELEAMPLGEYEHAARYVSEVECNWKTFAGNYSECDHCHANHQDWITDIELEESELEVNDYHWILHYTHDEDVEDEMRIHDEHEAKFYYFWPNFT
notes: Base peptide
Kd (CD40 ligand [3]): 4 nM
EC50 (CD40 ligand [4]): 331 nM

{PEG}-DAAGREFFQIAGLFSFRHHWWQA (reading uncertain, also called PEGylated M1_30S) [PEGylated CD40L M1_30s]
EC50 (CD40 ligand [5]): 32 nM
EC50 PEGylated peptide, inhibition of CD40L-induced CD86 expression on primary B-cells (CD40 ligand [6]): > 2000 nM

LCEMIAIYVFLWKKVFL [CD40L M7_217]
EC50 unmodified peptide, inhibition of CD40L-induced CD86 expression on primary B-cells (CD40 ligand [6]): 2500 nM

B4: CD40L M8_720 (peptide)
peptide: RLPETRKAQAALATKYGIYGFCYYHYWFNGRRILESPVDAMLESGEPDFPFMLCWANENWT
notes: Base peptide
Kd (CD40 ligand [3]): 4 nM
EC50 (CD40 ligand [4]): 238 nM

PRWVRNRFYCLFVPSGVQRGGIHLWFSNWVR (Base peptide) [CD40L M1_50]
IC50 (CD40 ligand [7]): 45.8 nM

{PEG}-PRWVRNRFYSLFVPSGVQRGGIHLWFSNWVR (reading uncertain, also called PEGylated M1_50S) [PEGylated CD40L M1_50s]
EC50 (CD40 ligand [5]): 1500 nM
EC50 PEGylated peptide, inhibition of CD40L-induced CD86 expression on primary B-cells (CD40 ligand [6]): 30 nM

{PEG}-PPRYNLFFLFRFYSSFRRDYLYF (reading uncertain, also called PEGylated M1_9S) [PEGylated CD40L M1_9s]
EC50 (CD40 ligand [5]): 48 nM
EC50 PEGylated peptide, inhibition of CD40L-induced CD86 expression on primary B-cells (CD40 ligand [6]): 180 nM

PFTWRPTIFWIIQLIVYMRHF (Base peptide; also called CD40L M1-206) [CD40L M7_206]
Kd (CD40 ligand [3]): 280 nM
EC50 (CD40 ligand [4]): 190 nM

{PEG}-HSFVLFGVNVPFNIIDFQMRVKS (reading uncertain, also called PEGylated M1_42S) [PEGylated CD40L M1_42s]
EC50 (CD40 ligand [5]): 112 nM
EC50 PEGylated peptide, inhibition of CD40L-induced CD86 expression on primary B-cells (CD40 ligand [6]): 5000 nM

{PEG}-LPFVPYRSHVLKYGWFFPVQWSIFAVLPFQYLHRSR (reading uncertain, also called PEGylated M1-18S) [PEGylated CD40L M1_18s]
EC50 (CD40 ligand [5]): 3300 nM
EC50 PEGylated peptide, inhibition of CD40L-induced CD86 expression on primary B-cells (CD40 ligand [6]): 90 nM

{PEG}-HPFSIKNVFSIWNFFSVY (reading uncertain, also called PEGylated M1_6S) [PEGylated CD40L M1_6s]
EC50 (CD40 ligand [5]): 48 nM
EC50 PEGylated peptide, inhibition of CD40L-induced CD86 expression on primary B-cells (CD40 ligand [6]): 1.5 nM

LWRLNEWNYSDAELLSLIEWCIDH (Base peptide) [CD40L M8_721]
Kd (CD40 ligand [3]): 7 nM
EC50 (CD40 ligand [4]): 524 nM

{PEG}-SIQYHWRYSRFKYYFQLIWVYYSHV (reading uncertain) [PEGylated CD40L M1_82s]
EC50 (CD40 ligand [5]): 120 nM

{PEG}-LLYVKVISFFSMLVQYNNFQTYK (reading uncertain) [PEGylated CD40L M2_159s]
EC50 (CD40 ligand [5]): 120 nM
